# Experiment: soluble on expression in E. coli; label from the status in PepcDB or PDB records
row,Sequence,soluble on expression in E. coli
1,MPQIYFSAAERRPKFVMKTGLSATEKNEVIKAAYRQIFERDITRAYSLSISDLESKVKNGDISMKEFVRRLAKSPLYQKQFYQPFINSRVIELAFRHILGRGPSSREEVQKYFSIISNGGLPALVDALVDSAEYSDYFGEETVPYLRGLEHHHHHH,soluble
2,MPQSLISELHTQYAQFVRKHPHAERDFSDALEDVLTDAGLTYDRVSARIKDWHSLKTKARKKNAQGAFIYPHPWDDVHDIIGVRITTLHSTEIPQIIEALADVFTVERSVDKTALTRISGSFGYGSHHLILKIDDRVKDLNNYVGMVFEVQIRTVLQHAWAEFEHDIRYKRSGDLDPQIDRAFTLAAGLIELADQQFDLIAAIQEPQKHSPNLEVDITAETLPGVIAMLVGSRFPQSRSEHYRWLEELLFAHSITTAAQLKELLNDRDIEAVRKALNYKFKPGQVRIIDDLLLYRYGTKHIEATGETGKNPRLRLPRLNERLRILNKHAPRNRSDLQQS,not soluble
3,MPRKQRVVTTPSPPTSDEDEDMDFGSTSQQQQQQPTRNNDGLSGFKSITEIIAEADNNIPSEQIDKDIDSFSSYSDISDWRGIPKFFPSLSSLSRRASTYENWENRFKVVDYLVSCSGALKDSVSDYVADYFEKNESGEDHSVDVELVHAVSMFVILTQRLTVQLQLYVSKSIASANQQAKRGTGRGGRQVDLDDDIVKWKDIQRHRMINCLLELLELRVDTVAGTKKKAIQYVFAPDVMEKDFLLRFLDTVVQLLEDPENMARSSQQWISHYFRILKVLSADYGMTKDVANCLFTALSHSYLEAANTFPFIEPLVTLMKENGEGSGRIYQPLRNVLQLVICRVGNLYAGERAEKPPPKAFCMMVQSLAINVHDLMLQDITHVYRLLQNQHVNVRMSTLHALADMFSSSYLSQSLCDTFASRRLKREGIFKRLLAHTNDEATNVRSKAVSLLRNIMENRRIPEEFESCGLLSIVGSRLNDKSVQVRKSAIQFLTTFLDNNRHGHDFNREMHQLKLNAKCSELRNAEEPQSKAIQGAENAFRQNLFTLTAGVRVEVYDIFRRRYRVEPERSITDILTGLFSPGSGNRLVRYYVAQENFPFRDRIPSLRERRSDDMEDDDDDTVSLEDDDMTSLVSEVVKWVVAQAEEDYVTFKVQLTQMDDDQLLENEQEARDRNNQIMQLRAQVQQLINKMSIEQELSRCVTIALRCVLNGETAEIKEGIRFLTRCKLFEITGADDAIRSMCSLVWRPSADILNELIEAAEDMFISRLDGNEKASERDSSTVENLMKAMNGVTEKDRPSVEEVIYLLAATELVHVDSDKNKVPRKRRPIEANVINKLWMIALDMSHGINSRKIDALRILYPISRSERGIAEARSRLRVVQKKLMDPELAVDALRIISILGTPTKLENEQDAYSRPLFKIHQDDSLWKSIEKLFFYEIMKADDNPDRDWFGVIRLTITTILSLSMDVNVMLPKLASHFVYRTKRISDFFLFYCDQVDDATDDTRKKMAQRRREYWALTYCRVMEKLMAFIGEVAVQLNAYIQVTIPKLHTRYVSKMVDAEKNDANIREEPVRFLSDLEKSVAQRKTIFTVPQDTTPGATSNDLHHLVSVMCDKRLFVPNKLMGRLLPIVVYGMRCKIMPTRIRHAATVAYGKMMPLSAEISAFAAPSFFSAMTKSSSILLRCNLVAACCDFAFAQPTLFELFAQSLFRMSQDESPLARESTILVLSHLMSNDMIQTRGVLSEAARCICDPTRAVRDVAQSFFKELNSRTDTIIQLLPEFLYHLSNGNERMSFKSYKTVFEFLIQLLKDKPKASADSMIDRVCIKFSNTDMNDSETPKYLLVALAKFVQNDGGLHRLQDNWRHWSKFMCHPSVAKEYRMMVEHMHSTSKNDEFKSQCVELIDNINKIESEGLRKEDVAIGSSITKNKGRAKKNPTTMSGSSRTTSRAANSRRRAPPPAQSDEDDSDSDDAPAAPRSAARRKAKKSAVADDDSDSDEFMLDD,not soluble
4,MPRYYEDKPEGGACAGVKEDLGACLLQSACVLQEGKSPRQCLKEGNCRALQYSFFECKRSMLDARSRFRGRKGY,not soluble
